This note sets out measurements from IntAct's records for PubMed 22135460.

For one assay, the target named is rpod_ecoli rpoD (UniProt P00579).
For another assay, the target named is rpos_ecoli rpoS (UniProt P13445).
The next assay has as its target T1, ltact_bpt4 33 (UniProt P13338).
T1 sequence: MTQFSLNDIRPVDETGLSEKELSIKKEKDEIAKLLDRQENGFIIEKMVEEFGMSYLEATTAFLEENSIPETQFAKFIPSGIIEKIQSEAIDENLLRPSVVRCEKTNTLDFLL

rpos_ecoli rpoS, sequence (P13445 whole entry): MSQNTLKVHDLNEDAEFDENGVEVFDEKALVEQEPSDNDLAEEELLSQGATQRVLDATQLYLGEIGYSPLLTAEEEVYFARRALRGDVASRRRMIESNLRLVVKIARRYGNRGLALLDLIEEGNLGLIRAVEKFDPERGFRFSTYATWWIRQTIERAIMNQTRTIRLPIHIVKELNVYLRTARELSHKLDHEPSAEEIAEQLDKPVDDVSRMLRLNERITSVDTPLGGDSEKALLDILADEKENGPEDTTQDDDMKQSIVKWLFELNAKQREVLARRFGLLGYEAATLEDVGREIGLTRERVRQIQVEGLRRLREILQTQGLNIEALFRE
rpod_ecoli rpoD, sequence (P00579 whole entry): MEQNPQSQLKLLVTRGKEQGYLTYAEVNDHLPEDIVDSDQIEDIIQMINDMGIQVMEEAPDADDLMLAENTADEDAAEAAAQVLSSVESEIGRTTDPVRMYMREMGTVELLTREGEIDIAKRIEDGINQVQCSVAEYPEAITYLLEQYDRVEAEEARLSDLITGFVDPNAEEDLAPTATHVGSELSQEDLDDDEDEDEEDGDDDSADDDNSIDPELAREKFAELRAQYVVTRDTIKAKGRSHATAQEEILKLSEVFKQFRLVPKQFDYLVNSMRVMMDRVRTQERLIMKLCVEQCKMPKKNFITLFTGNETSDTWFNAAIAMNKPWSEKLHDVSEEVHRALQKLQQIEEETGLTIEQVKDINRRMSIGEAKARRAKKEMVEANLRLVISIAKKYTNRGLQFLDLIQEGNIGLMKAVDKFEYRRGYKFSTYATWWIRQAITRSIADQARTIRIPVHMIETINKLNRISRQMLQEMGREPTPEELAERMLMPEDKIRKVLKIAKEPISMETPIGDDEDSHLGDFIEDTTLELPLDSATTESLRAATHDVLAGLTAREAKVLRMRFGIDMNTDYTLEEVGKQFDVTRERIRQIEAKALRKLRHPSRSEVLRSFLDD

In the case of “DNA-directed RNA polymerase subunit beta (Escherichia coli (strain K12)) (from UniProt P0A8V2) E898A”, the “effect of a mutation on the interaction” value with rpod_ecoli rpoD is on record as “disrupting interaction strength”; with rpos_ecoli rpoS it was “decreasing interaction strength”; with ltact_bpt4 33, “disrupting interaction strength”.
Take “DNA-directed RNA polymerase subunit beta (Escherichia coli (strain K12)) (from UniProt P0A8V2) E899A”: the “effect of a mutation on the interaction” value with rpod_ecoli rpoD is on record as “decreasing interaction strength”; with ltact_bpt4 33 it was “disrupting interaction strength”.
Turning to “DNA-directed RNA polymerase subunit beta (Escherichia coli (strain K12)) (from UniProt P0A8V2) F906A”, the “effect of a mutation on the interaction” value is given as “disrupting interaction strength” with rpod_ecoli rpoD, “decreasing interaction strength” in the assay with rpos_ecoli rpoS and “disrupting interaction strength” in the assay with ltact_bpt4 33.
For “DNA-directed RNA polymerase subunit beta (Escherichia coli (strain K12)) (from UniProt P0A8V2) I905A”, the “effect of a mutation on the interaction” value with rpod_ecoli rpoD is “disrupting interaction strength”; with rpos_ecoli rpoS, “decreasing interaction strength”; in the assay with ltact_bpt4 33 it was “disrupting interaction strength”.
Take “DNA-directed RNA polymerase subunit beta (Escherichia coli (strain K12)) (from UniProt P0A8V2) K900A”: the “effect of a mutation on the interaction” value with rpod_ecoli rpoD and with ltact_bpt4 33 was “disrupting interaction strength” in each case.
On to “DNA-directed RNA polymerase subunit beta (Escherichia coli (strain K12)) (from UniProt P0A8V2) K900E”, for which the “effect of a mutation on the interaction” value with ltact_bpt4 33 was “disrupting interaction strength”.
For the substance “DNA-directed RNA polymerase subunit beta (Escherichia coli (strain K12)) (from UniProt P0A8V2) L901A”, the “effect of a mutation on the interaction” value with rpod_ecoli rpoD, with rpos_ecoli rpoS and with ltact_bpt4 33 was “disrupting interaction strength” throughout.
For the substance “DNA-directed RNA polymerase subunit beta (Escherichia coli (strain K12)) (from UniProt P0A8V2) L902A”, the “effect of a mutation on the interaction” value in the assay with rpod_ecoli rpoD is reported as “disrupting interaction strength”; in the assay with rpos_ecoli rpoS it was “decreasing interaction strength”; with ltact_bpt4 33, “disrupting interaction strength”.
As to “DNA-directed RNA polymerase subunit beta (Escherichia coli (strain K12)) (from UniProt P0A8V2) R903A”, the “effect of a mutation on the interaction” value was “decreasing interaction strength” with rpod_ecoli rpoD, “decreasing interaction strength” with rpos_ecoli rpoS and “disrupting interaction strength” with ltact_bpt4 33.
